# Experimental data as given in patent US20210283221A1.
# B1: Coversin protein, Q5YD59 19-168 (protein)
# chain: DSESDCTGSEPVDAFQAFSEGKEAYVLVRSTDPKARDCLKGEPAGEKQDNTLPVMMTFKNGTDWASTDWTFTLDGAKVTATLGNLTQNREVVYDSQSHHCHVDKVEKEVPDYEMWMLDAGGLEVEVECCRQKLEELASGRNQMYPHLKDC
# Biological target: human complement C5 with an unidentified amino acid substitution at Arg885 (in serum of the Example 4 patient) (human), P01031
# Experiment: cell-based or functional assay
binder,measurement,value
B1,residual CH50 (U Eq/ml) as % of baseline in serum of the Example 4 patient at Coversin approximately 15 ug/ml (% of baseline CH50),< 5
